Assay results from patent US11629364B2, “Methods for synthesizing anticoagulant polysaccharides” (OPTIMVIA, LLC, priority 2019, dated 2023).

Experiments:
[1] = NST activity: N-sulfated products detected by SAX-HPLC after lyase digestion; type: biochemical; details: procedures of Example 2; expected
Procedure: A study was conducted in accordance with embodiments of the present disclosure to confirm NST activity of enzymes comprising the amino acid sequence of SEQ ID NO: 2, SEQ ID NO: 4, SEQ ID NO: 6, SEQ ID NO: 8, SEQ ID NO: 10, or SEQ ID NO: 12 by detecting the presence of N-sulfated polysaccharide products formed as a result of their sulfotransfer reaction, using mass spectrometry (MS). Each engineered enzyme was purified according to the procedure of Example 1. Sulfotransferase activity was monitored in 100 μL reactions containing 50 μM of enzyme. To each purified protein solution, 20 mg of an aryl sulfate compound (either PNS or NCS) was dissolved in 2 mL of reaction buffer (50 mM IVIES pH 7.0, 2 mM CaCl2)), added to the protein solution, and incubated at 37° C. for 10 min. 2.5 mL of 2 mg/mL solution of N-deacetylated heparosan was added to protein/donor solution and incubated overnight at 37° C. The N-deacetylated heparosan was synthesized according to the protocol described in Balagurunathan, K. et al (eds.) (2015), Glycosaminoglycans: Chemistry and Biology, Methods in Molecular Biology, vol. 1229, DOI 10.1007/978-1-4939-1714-3_2, ©Springer Science+Business Media, New York, pp. 11-19 (section 3.1). To purify the N-sulfated product, the incubated reaction mixture was centrifuged the following day at 5,000×g for 10 min. The filter was washed once with 2 mL water, and centrifuged again. The filtrate was added to a 1K MWCO Dialysis membrane, dialyzed for 2 days in Milli-Q water, with water changes at 1 h, 2 h, 8 h, 16 h, 32 h, and then lyophilized.
The lyophilized N-sulfated products from each reaction were subsequently digested with a mixture of three carbon-oxygen lyases comprising the amino acid sequences of SEQ ID NO: 30, SEQ ID NO: 31, and SEQ ID NO: 32, which catalyze the β-eliminative cleavage of heparosan-based polysaccharides. Such lyases are available from New England Biolabs, among other chemical and biological commercial entities. 1 μL of each lyase was incubated with 50 μg of the lyophilized sulfated polysaccharide product and the provided digestion buffer, and incubated over 24 hours according to the packaged instructions provided by New England Biolabs with each lyase. After digestion, the lyase enzymes were inactivated by heating to 100° C. for 5 minutes. Samples were centrifuged at 14,000 rpm for 30 minutes before introduction to a strong anion exchange, high performance liquid chromatography (SAX) analysis. SAX analysis was performed on a Dionex Ultimate 3000 LC system interface. Separation was carried out on a 4.6×250 mm Waters Spherisorb analytical column with 5.0 μm particle size at 45° C. Mobile phase solution A was 2.5 mM sodium phosphate, pH 3.5, while mobile phase solution B was 2.5 mM sodium phosphate, pH 3.5, and 1.2 M Sodium perchlorate. After each sample was loaded onto the column, mobile phase solutions were applied to the column at a ratio of 98% mobile phase solution A and 2% mobile phase solution B for five minutes at a flow rate of 1.4 mL/min. After five minutes, a linear gradient of increasing mobile phase solution B was applied until the ratio of mobile phase solution A to mobile phase solution B was 50:50.

[2] = 3OST activity: 3-O sulfated products detected by LCMS after lyase digestion; type: biochemical; details: for 3OST activity: N,2,3,6-HS products by MS and/or NMR: procedures of Example 5 and/or Example 6, expected; for abundance of 3-O sulfation in product: relative to the commercial heparin standard
Procedure: A study was conducted in accordance with embodiments of the present disclosure to confirm 3OST activity of enzymes comprising the amino acid sequence of SEQ ID NO: 24, SEQ ID NO: 26, or SEQ ID NO: 28 by detecting the presence of 3-O sulfated polysaccharide products as a result of their sulfotransfer reaction, using a reaction, using a similar LCMS procedure as in Example 3, except that the sulfo acceptor polysaccharide was commercially-available heparin (CAS code: 9041-08-1, available from Millipore Sigma). Even though the unmodified heparin contains ˜3.5% (w/w) of 3-O sulfated glucosamine residues, about ˜60% of the glucosamine residues are N,6-sulfated and are adjacent to a 2-O sulfated hexuronic acid residue, as in Formula X. Consequently, these N,6-sulfated glucosamine residues can still be 3-O sulfated.

B1: SEQ ID NO: 39: mutant of N-sulfotransferase domain of pig NDST carrying the SEQ ID NO: 10 mutations (protein)
chain: MSEEKDPLWQDPCEDKRHKDIWSKEKTCDRFPKLLIIGPHKTGVHALYLFLGLHPDLSSNYPSSETGNHIGFFGGHNYHKGIDWYMDFFPIPSNTTSDFYFEKSAWYFDSDVAPRRAAALLPKAKVLTILINPADRAYSWYQHQRAHDDPAALRYTFHEVITAGPDASLKLRALQNRCLVPGWYATHLERWLGAFHANQILVLDGKLLRTEPARVMDTVQKFLGVTNTIDYHKTLAFDPKKGFWCQLLEGGKTKCLGRSVGRKYPDMDPDSRAFLRDYYRDHNIELSKLLYKMGQTLPTWLREELQNTR
modifications: Amino acid sequence encoding for engineered arylsulfate-dependent N-sulfotransferase variant 13
NST activity: N-sulfated products by SAX [1]: confirm the presence of N-sulfated polysaccharide products

B2: SEQ ID NO: 40: mutant of N-sulfotransferase domain of pig NDST carrying the SEQ ID NO: 12 mutations (protein)
chain: MSEEKDPLWQDPCEDKRHKDIWSKEKTCDRFPKLLIIGPAKTGAWLLHHFLGLHPDLSSNYPSSETHSSIQFFNGHNYHKGIDWYMDFFPIPSNTTSDFYFETSANYFDSDVAPRRAAALLPKAKVLTILINPADRAYSWYQHQRAHDDPAALRYTFHEVITAGPDASLKLRALQNRCLVPGWYATHLERWLGAFHANQILVLDGKLLRTEPARVMDTVQKFLGVTNTIDYHKTLAFDPKKGFWCQLLEGGKTKCAHRGLGRKYPDMDPDSRAFLRDYYRDHNIELSKLLYKMGQTLPTWLREELQNTR
modifications: Amino acid sequence encoding for engineered arylsulfate-dependent N-sulfotransferase variant 14
NST activity: N-sulfated products by SAX [1]: confirm the presence of N-sulfated polysaccharide products

B3: SEQ ID NO: 52: mutant of isoform 1 of the pig 3OST enzyme, SEQ ID NO: 24 mutations (protein)
chain: MGVAPNGSAQQLPQTIIIGVGHGGTRALLEMLSLHPDVAAAENEVHFFDWEEHYSHGLGWYLSQMPFSWPHQLTVEKTHSYFTSPKVPERVYSMNPSIRLLLILRDPSERVLSLGTHLFYVHMQKHKPYPSIEEFLVRDGRLNVDYTGLNRSLYHVHMQNWLRFFPLRHIHIVDGDRLIRDPFPEIQKVERFLKLSPQINASNFYFNKTKGFYCLRDSGRDRCLHESKGRAHPQVDPKLLNKLHEYFHEPNKKFFELVGRTFDWH
modifications: Amino acid sequence encoding for engineered arylsulfate-dependent 3-O-sulfotransferase variant 5
3OST activity: N,2,3,6-HS products by MS and/or NMR [2]: confirm the presence of N,2,3,6-HS products

B4: SEQ ID NO: 53: mutant of isoform 1 of the pig 3OST enzyme, SEQ ID NO: 26 mutations (protein)
chain: MGVAPNGSAQQLPQTIIIGVGHGGTRALLEMLSLHPDVAAAENEVHFFDWEEHYSHGLGWYLSQMPFSWPHQLTVEKTHSYFTSPKVPERVYSMNPSIRLLLILRDPSERVLSAYTHMFYNHMQKHKPYPSIEEFLVRDGRLNVDYTGLNRSLYHVHMQNWLRFFPLRHIHIVDGDRLIRDPFPEIQKVERFLKLSPQINASNFYFNKTKGFYCLRDSGRDRCLHESKGRAHPQVDPKLLNKLHEYFHEPNKKFFELVGRTFDWH
modifications: Amino acid sequence encoding for engineered arylsulfate-dependent 3-O-sulfotransferase variant 6
3OST activity: N,2,3,6-HS products by MS and/or NMR [2]: confirm the presence of N,2,3,6-HS products

B5: SEQ ID NO: 28: engineered aryl sulfate-dependent 3OST enzyme, mutant of isoform 1 of the human 3OST enzyme (protein)
chain: MGTASNGSTQQLPQTIIIGVGHGGTRALLEMLSLHPDVAAAENEVHFFDWEEHYSQGLGWYLTQMPFSSPHQLTVEKTHSYFTSPKVPERIHSMNPTIRLLLILRDPSERVLSLGTHLLYVHLQKHKPYPPIEDLLMRDGRLNLDYTGLNRSLYHAHMLNWLRFFPLGHIHIVDGDRLIRDPFPEIQKVERFLKLSPQINASNFYFNKTKGFYCLRDSGKDRCLHESKGRAHPQVDPKLLDKLHEYFHEPNKKFFKLVGRTFDWH
modifications: Amino acid sequence encoding for engineered arylsulfate-dependent 3-O-sulfotransferase variant 3
notes: engineered aryl sulfate-dependent 3OST enzyme, mutant of isoform 1 of the human 3OST enzyme
3OST activity with PNS ([2]; PNS as aryl sulfate compound): not active
abundance of 3-O sulfation in product [2]: higher abundance of 3-O sulfation

B6: SEQ ID NO: 24: engineered aryl sulfate-dependent 3OST enzyme, mutant of isoform 1 of the human 3OST enzyme (protein)
chain: MGTASNGSTQQLPQTIIIGVGHGGTRALLEMLSLHPDVAAAENEVHFFDWEEHYSQGLGWYLTQMPFSSPHQLTVEKTHSYFTSPKVPERIHSMNPTIRLLLILRDPSERVLSAYTHMLYNHLQKHKPYPPIEDLLMRDGRLNLDYVGLNRSLYHAHMLNWLRFFPLGHIHIVDGDRLIRDPFPEIQKVERFLKLSPQINASNFYFNKTKGFYCLRDSGKDRCLHESKGRAHPQVDPKLLDKLHEYFHEPNKKFFKLVGRTFDWH
modifications: Amino acid sequence encoding for engineered arylsulfate-dependent 3-O-sulfotransferase variant 1
notes: as for B5
abundance of 3-O sulfation in product [2]: higher abundance of 3-O sulfation

B7: SEQ ID NO: 37: mutant of N-sulfotransferase domain of pig NDST carrying the SEQ ID NO: 6 mutations (protein)
chain: MSEEKDPLWQDPCEDKRHKDIWSKEKTCDRFPKLLIIGPHHTGGHALYLFLGLHPDLSSNYPSSETGEEIQFFNGHNYHKGIDWYMDFFPIPSNTTSDFYFEKSANYFDSDVAPRRAAALLPKAKVLTILINPADRAYSWYQAQRAHDDPAALRYTFHEVITAGPDASLKLRALQNRCLVPGWYATHLERWLGAFHANQILVLDGKLLRTEPARVMDTVQKFLGVTNTIDYHKTLAFDPKKGFWCQLLEGGKTKCGGRHLGRKYPDMDPDSRAFLRDYYRDHNIELSKLLYKMGQTLPTWLREELQNTR
modifications: Amino acid sequence encoding for engineered arylsulfate-dependent N-sulfotransferase variant 11
NST activity: N-sulfated products by SAX [1]: confirm the presence of N-sulfated polysaccharide products

B8: SEQ ID NO: 38: mutant of N-sulfotransferase domain of pig NDST carrying the SEQ ID NO: 8 mutations (protein)
chain: MSEEKDPLWQDPCEDKRHKDIWSKEKTCDRFPKLLIIGPHGTGGHALYLFLGLHPDLSSNYPSSETFLSIQFFNGHNYHKGIDWYMDFFPIPSNTTSDFYFEHSGNYFDSDVAPRRAAALLPKAKVLTILINPADRAYRAYVWQRAHDDPAALRYTFHEVITAGPDASLKLRALQNRCLVPGWYATHLERWLGAFHANQILVLDGKLLRTEPARVMDTVQKFLGVTNTIDYHKTLAFDPKKGFWCQLLEGGKTKCLGRSLGSKYPDMDPDSRAFLRDYYRDHNIELSKLLYKMGQTLPTWLREELQNTR
modifications: Amino acid sequence encoding for engineered arylsulfate-dependent N-sulfotransferase variant 12
NST activity: N-sulfated products by SAX [1]: confirm the presence of N-sulfated polysaccharide products
